Test results: the supplement of paper PMC7877785
± gives the uncertainty stated by the source.

Assay: self-splicing fitness, log relative to wild type (ln ratio); higher = more splicing; Tetrahymena group I intron in knt gene, E. coli kanamycin selection, DiMSum; sequences stand for … in CUCUCU…GGAGGGAAAAGUUAUCAGGCAUGCACCUGGUAGCUAGUCUUUAAACCAAUAGAUUGCAUCGGUUUAAAAGGCAAGACCGUCAAAUUGCGGGAAAGGGGUCAACAGCCGUUCAGUACCAAGUCUCAGGGGAAACUUUGAGAUGGCCUUGCAAAGGGUAUGGUAAUAAGCUGACGGACAUGGUCCUAACCACGCAGCCAAGUCCUAAGUCAACAGAUCUUCUGUUGAUAUGGAUGCAGUUCACAGACUAAAUGUCGGUCGGGGAAGAUGUAUUCUUCUCAUAAGAUAUAGUCGGACCUCUCCUUAAUGGGAGCUAGCGGAUGAAGUGAUGCAACACUGGAGCCGCUGGGAACUAAUUUGUAUGCGAAAGUAUAUUGAUUAGUUUUGGAGUACUCGUGGUCG
Procedure, shortened: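 DiMSum derived fitness as the error-weighted combination of fold changes across replicates, kanamycin versus no kanamycin, normalised to wild type. E. coli BL21(DE3) held the library, which randomised all eight P1ex-region intron nucleotides within the knt kanamycin-resistance gene on pET-22b(+). Six replicate transformations grew overnight at 37°C or 30°C on LB agar with or without 25 μg/mL kanamycin, also containing 100 μg/mL carbenicillin, 50 μM IPTG and 0.2% rhamnose, and pooled colonies were amplicon-sequenced on an Illumina HiSeq 2500.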

Sequence | self-splicing fitness (ln) (30 °C) | self-splicing fitness (ln) (37 °C)
GUGUAGCAAUAUUACGCGGG | -3.73 ± 0.2 | -2.75 ± 0.2
GUGUAGCAAUAUUACGGAAG | -1.96 ± 0.19 | -0.206 ± 0.19
GUGUAGCAAUAUUACGGCCA | 0.628 ± 0.35 | -0.349 ± 0.44
GUGUAGCAAUAUUACGGCGG | -2.81 ± 0.23 | -1.6 ± 0.19
GUGUAGCAAUAUUACGGGUC | -2.47 ± 0.2 | -2.49 ± 0.28
GUGUAGCAAUAUUACGGGUU | -2.77 ± 0.21 | -1.22 ± 0.17
GUGUAGCAAUAUUACGGUAG |  | -1.58 ± 0.23
GUGUAGCAAUAUUACGGUUA | -0.588 ± 0.14 | -0.936 ± 0.17
GUGUAGCAAUAUUACGGUUG | -2.88 ± 0.14 | -2.61 ± 0.16
GUGUAGCAAUAUUACGUAUU | -1.25 ± 0.12 | -2.82 ± 0.22
GUGUAGCAAUAUUACGUGAU | -1.59 ± 0.17 | 0.0886 ± 0.19
GUGUAGCAAUAUUACGUUUG | -2.54 ± 0.27 | -1.44 ± 0.28
GUUAAGCAAUAUUACGAAAG | -1.91 ± 0.14 | -1.5 ± 0.22
GUUAAGCAAUAUUACGAACG | -2.01 ± 0.28 | -1.16 ± 0.31
GUUAAGCAAUAUUACGAACU | -2.35 ± 0.2 | -0.527 ± 0.2
GUUAAGCAAUAUUACGAAUU | -1.72 ± 0.21 | -1.4 ± 0.24
GUUAAGCAAUAUUACGAGUU | -1.36 ± 0.11 | -0.688 ± 0.14
GUUAAGCAAUAUUACGAUAC | -1.34 ± 0.21 | -0.951 ± 0.28
GUUAAGCAAUAUUACGAUGA | -1.33 ± 0.17 | 0.18 ± 0.11

Sequence | self-splicing fitness (ln) (30 °C) | self-splicing fitness (ln) (37 °C)
GUUAAGCAAUAUUACGAUGC | -0.546 ± 0.18 | -0.241 ± 0.18
GUUAAGCAAUAUUACGCGCG | -0.983 ± 0.09 | 0.0623 ± 0.14
GUUAAGCAAUAUUACGCUCG | -0.539 ± 0.13 | 0.0474 ± 0.16
GUUAAGCAAUAUUACGGCGU | -0.0268 ± 0.076 | -0.00868 ± 0.094
GUUAAGCAAUAUUACGGGGA | -3.04 ± 0.37 | -2.15 ± 0.47
GUUAAGCAAUAUUACGUCCG | -1.77 ± 0.17 | -0.533 ± 0.23
GUUAAGCAAUAUUACGUUUU | -3.11 ± 0.15 | -1.7 ± 0.16
GUUCAGCAAUAUUACGAACA | -2.43 ± 0.26 | -1.45 ± 0.22
GUUCAGCAAUAUUACGAAGC | -0.705 ± 0.18 | -1.29 ± 0.2
GUUCAGCAAUAUUACGAAUC | -3.73 ± 0.24 | -2.29 ± 0.33
GUUCAGCAAUAUUACGACAA | -1.06 ± 0.18 | -0.319 ± 0.18
GUUCAGCAAUAUUACGACAG | -3.33 ± 0.35 | -1.76 ± 0.42
GUUCAGCAAUAUUACGACCG | -3.83 ± 0.18 | -1.93 ± 0.23
GUUCAGCAAUAUUACGACGG | -4.42 ± 0.24 | -3.24 ± 0.37
GUUCAGCAAUAUUACGAGAA | -1.81 ± 0.49 | -2.14 ± 0.31
GUUCAGCAAUAUUACGAGGU | -2.25 ± 0.12 | -0.472 ± 0.13
GUUCAGCAAUAUUACGAGUG | -1.59 ± 0.18 | -0.332 ± 0.14
GUUCAGCAAUAUUACGAUAU | -0.361 ± 0.086 | 0.524 ± 0.097
